Results from US20250147035A1, “METHODS FOR DETECTION OF POST-TRANSLATIONAL MODIFICATIONS” (Quantum-Si Incorporated, priority 2023, published 2025).
Read-outs that look alike come from different tables or passages of the source. Primed or numbered codes have the meaning given here. Where no end group is shown, it is not given here. [ ]: non-standard residue; d: D form. pT = C[C@@H](OP(=O)(O)O)[C@H](N)C(=O)O; pS = N[C@@H](COP(=O)(O)O)C(=O)O; Biotin′ = not defined here

T1: pTAKLDEESILKQ-Biotin
T1 peptide: [pT]AKLDEESILKQ-{Biotin′}

T2: TAKLDEESILKQ-Biotin
T2 peptide: TAKLDEESILKQ-{Biotin′}

T3: pSAKLDEESILKQ-Biotin
T3 peptide: [pS]AKLDEESILKQ-{Biotin′}

T4: p…-Biotin
T4 sequence (peptide, phosphothreonine at 1; C-terminal Biotin): TAKLDEESILKQ

T5: …-Biotin
T5 sequence (peptide, C-terminal Biotin): SAKLDEESILKQ


What was measured:
[1] = test system: p[…]-Biotin; assay: Octet binding assay of PTM-specific affinity reagent candidates, pTQR peptide; conditions: fixed concentration of reagent
Protocol: This Example characterizes an exemplary phosphorylated threonine recognizer for use in methods of the disclosure. Octet binding assays at a fixed concentration of PTM-specific affinity reagent candidates were evaluated for binding with phospho-threonine, phospho-serine containing peptides (p[…]-Biotin; p[…]-Biotin; p[…]-Biotin), and control peptides without modifications ([…]-Biotin; […]-Biotin).

[2] = test system: p[…]-Biotin; assay: Octet binding assay of PTM-specific affinity reagent candidates, pTA peptide; conditions: fixed concentration of reagent
From the text: (§1) This Example characterizes an exemplary phosphorylated threonine recognizer for use in methods of the disclosure.

[3] = test system: SAKLDEESILKQ-Biotin; assay: Octet binding assay of PTM-specific affinity reagent candidates, SA control peptide; conditions: SA = […]-Biotin (control); fixed concentration of reagent
From the text: as §1

[4] = target: T1, pTAKLDEESILKQ-Biotin; assay: Octet (BLI), fixed reagent concentration;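 also: octet binding of candidate PTM-specific affinity reagents, each at one fixed concentration, to biotinylated phospho-Thr or phospho-Ser peptides, with unmodified biotinylated peptides serving as controls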
Protocol: (§2) Octet binding assays at a fixed concentration of PTM-specific affinity reagent candidates were evaluated for binding with phospho-threonine, phospho-serine containing peptides (p[sequence]-Biotin; p[sequence]-Biotin; p[sequence]-Biotin), and control peptides without modifications ([sequence]-Biotin; [sequence]-Biotin).

[5] = target: T2, TAKLDEESILKQ-Biotin; assay: Octet (BLI), fixed reagent concentration;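 also: octet binding of candidate PTM-specific affinity reagents, each at one fixed concentration, to biotinylated phospho-Thr or phospho-Ser peptides, with unmodified biotinylated peptides serving as controls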
Protocol: as §2

[6] = target: T3, pSAKLDEESILKQ-Biotin; assay: Octet (BLI), fixed reagent concentration;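 also: octet binding of candidate PTM-specific affinity reagents, each at one fixed concentration, to biotinylated phospho-Thr or phospho-Ser peptides, with unmodified biotinylated peptides serving as controls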
Protocol: as §2

[7] = target: T4, p…-Biotin; assay: Octet (BLI), fixed reagent concentration
[8] = target: T5, …-Biotin; assay: Octet (BLI), fixed reagent concentration

Molecule	Octet binding assay response, pTQR [1]	Octet binding assay response, pTA [2]	Octet binding assay response, SA [3]	Octet binding assay response [4]	Octet binding assay response [5]	Octet binding assay response [6]	Octet binding assay response [7]	Octet binding assay response [8]	Octet binding assay response ([7]; pTA phosphothreonine peptide)	Octet binding assay response ([7]; pTQR phosphothreonine peptide)
PM16: Human/PLK1, SEQ ID NO: 16	2.1	1.7								
PM21 (Human/PHF3) (other) MTFLARLNFIWKGFINMPSVAKFVTKAYPVSGSPEYLTEDLPDSIQVGGRISPQTVWDYVEKIKASGTKEICVVRFTPVTEEDQISYTLLFAYFSSRKRYGVAANNMKQVKDMYLIPLGATDKIPHPLVPFDGPGLELHRPNLLLGLIIRQKL	0.5		0.1	0.3	0.2	0.2	0.5	0.1		
PM14 (Saccharomyces cerevisiae/RAD53) (other) MEDQDGKIQGFKIPAHAPIRYTQPKSIEAETREQKLLHSNNTENVKSSKKKGNGRFLTLKPLPDSIIQESLEIQQGVNPFFIGRSEDCNCKIEDNRLSRVHCFIFKKRHAVGKSMYESPAQGLDDIWYCHTGTNVSYLNNNRMIQGTKFLLQDGDEIKIIWDKNNKFVIGFKVEINDTTGLFNEGLGMLQEQRVVLKQTAEEKDLVKKLTQMMAAQRANQPSASSSSMSAKKPPVSDTNNNGNNSVLNDLVESPINANTGNILKRIHSVSLSQSQIDPSKKVKRAKLDQTSKGPENLQFS	1.0	1.1			0.1	0.2		0.2	1.1	1
PM10 (Human/MCPH1) (other) MSGRGKKPTRTLVMTSMPSEKQNVVIQVVDKLKGFSIAPDVCETTTHVLSGKPLRTLNVLLGIARGCWVLSYDWVLWSLELGHWISEEPFELSHHFPAAPLCRSECHLSAGPYRGTLFADQPAMFVSPASSPPVAKLCELVHLCGGRVSQVPRQASIVIGPYSGKKKATVKYLSEKWVLDSITQHKVCAPENYLLSQ	1.0		0.2	0.3	0.3	0.3	1	0.2		
PM23 (Human/Scp1) (other) MAFEELRVQAENARLDMHFKLKEDHEKIQHLQEEYKKEVNDKENQVSLLLIQRTEKENKMKDLTFLLEESRDKVNQLEDKTKLQDENVKELNKKKDHLTSELEDTKMSLQRSMNTQKALEEDLQIATKTIYQLTEEKEAQMEEFNKAKTDHSFMVTELKATTCTLEELLRTEQQRLVKNED	0.3			0.2	0.2	0.1	0.3	0.1		
PM19 (Human/RBM15) (other) MAPVASASPKLCLAWQGMLLLKNSNFPSNMHLLQGDLQVASSLLVEGSTGGKVAQLKITQRLRLDQPKLDEVTRRIKVAGPNGYAILLAVPGSSDSRSSSSSAASDTATSTQRPLRNLVSYLKQKQAAGVISLPVGGNKDKENTGVLHAFPPCEFSQQFLDSPAKALAKSEEDYLVMIIVRGFGFQI	1.0			0.3	0.2	0.1	1	0.1		
PM20 (Human/RB15B) (other) MQLGWNGLLVLKNSCFPTSMHILEGDQGVISSLLKDHTSGSKLTQLKIAQRLRLDQPKLDEVTRRIKQGSPNGYAVLLATQATPSGLGTEGMPTVEPGLQRRLLRNLVSYLKQKQAAGVISLPVGGSKGRDGTGMLYAFPPCDFSQQYLQSALRTLGKLEEEHMVIVIVRDTA	0.5			0.3	0.2	0.2	0.5	0.2		
